Measurements taken from paper PMC10718521, “Complexity of αvβ6-integrin targeting RGD peptide trimers: emergence of non-specific binding by synergistic interaction” (RSC Medicinal Chemistry, 2023).

How the values were obtained:
[1] = in vivo; parameters: species or system mice; details: CB17 SCID, mouse, total radioactivity
Excerpt: The biodistribution of all ^68Ga-labeled peptide trimers was investigated in severe combined immunodeficiency (SCID) mice bearing subcutaneous xenografts of the αvβ6-integrin expressing human lung adenocarcinoma cell line H2009 on their right shoulders.
(§1) Unless otherwise noted, the materials and the instrumentation used (analytical and preparative HPLC, ESI-MS, gamma counter, centrifuge), and the experimental procedures (^68Ga radiolabeling and radio-TLC for quality control, determination of log D7.4, cultivation of H2009 human lung adenocarcinoma cells, generation of tumor xenografts in CB17 SCID mice, small-animal PET, and biodistribution) were described before.[19] All animal experiments have been carried out according to applicable law and institutional guidelines of Technical University of Munich, and were approved by the responsible local authority (Regierung von Oberbayern). The H2009 cells were regularly authenticated and tested for mycoplasma contamination. The affinities of the pentynoic amide functionalized peptides were determined employing a well-established ELISA protocol on immobilized integrins.[36] TRAP-triazide,[38]FF (previously termed AvB6),[32] and YY (also referred to as Tyr2-alkyne)[33] were synthesized as described previously. RP-HPLC for assessment of compound polarity was done on a 150 × 4.6 mm ReproSil-Pur 120 C18-AQ 5 μm column, with a flow of 0.75 mL min^−1 and a gradient of 10–50% MeCN in water, both containing 0.1% trifluoroacetic acid, within 15 min. The required ^natGa-complexes of the peptide trimers were synthesized by reaction with equimolar amounts of aq. GaCl3 as described.[19]

[2] = assay type: physicochemical; details: pH 7.4
Description: The trimers were labeled with ^68Ga for biodistribution and small-animal PET experiments employing a fully automated method.[39] Non-radioactive reference compounds were obtained by complexation of equimolar amounts of ^natGa^3+ in form of the aq. chloride solution.[39] The polarity of the ^68Ga or ^natGa^3+ containing conjugates, respectively, was assessed by two established proxies, namely the n-octanol/water distribution coefficient at pH 7.4, log D7.4, and the retention time tR on a reverse-phase HPLC column with a suitable liquid-phase gradient (10–50% acetonitrile in water with 0.1% trifluoroacetic acid) (see Fig. 2a). […] A measurable decrease of the log D7.4 was only observed for ≥3 Tyr. […]
as §1

[3] = tumor/organ ratio Heart (myocard)
[4] = tumor/organ ratio Large intestine (empty)
[5] = tumor/organ ratio Small intestine (empty)
[6] = tumor/organ ratio Stomach (empty)

| Compound | tissue uptake at 1.5 h ([1]; Adrenals uptake) | tissue uptake at 1.5 h ([1]; Blood uptake) | tissue uptake at 1.5 h ([1]; Heart (myocard) uptake) | tissue uptake at 1.5 h ([1]; Kidneys uptake) | tissue uptake at 1.5 h ([1]; Large intestine (empty) uptake) | tissue uptake at 1.5 h ([1]; Liver uptake) | tissue uptake at 1.5 h ([1]; Lung uptake) | tissue uptake at 1.5 h ([1]; Muscle uptake) | tissue uptake at 1.5 h ([1]; Pancreas uptake) | tissue uptake at 1.5 h ([1]; Small intestine (empty) uptake) | tissue uptake at 1.5 h ([1]; Spleen uptake) | tissue uptake at 1.5 h ([1]; Stomach (empty) uptake) | tissue uptake at 1.5 h ([1]; Tumor H2009 uptake) | tissue to tissue ratio at 1.5 h ([1]; tumor/organ ratio Adrenals) | tissue to tissue ratio at 1.5 h ([1]; tumor/organ ratio Blood) | tissue to tissue ratio at 1.5 h [1, 3] | tissue to tissue ratio at 1.5 h ([1]; tumor/organ ratio Kidneys) | tissue to tissue ratio at 1.5 h [1, 4] | tissue to tissue ratio at 1.5 h ([1]; tumor/organ ratio Liver) | tissue to tissue ratio at 1.5 h ([1]; tumor/organ ratio Lung) | further results |
| --- | --- | --- | --- | --- | --- | --- | --- | --- | --- | --- | --- | --- | --- | --- | --- | --- | --- | --- | --- | --- | --- |
| CC(C)C[C@@H]1NC(=O)[C@H](CC(=O)O)NC(=O)CNC(=O)[C@H](CCCNC(=N)N)NC(=O)[C@H](Cc2ccccc2)NC(=O)[C@H](CCCCNC(=O)CCc2cn(CCCNC(=O)CCP(=O)(O)CN3CCN(CP(=O)(O)CCC(=O)NCCCn4cc(CCC(=O)NCCCC[C@H]5C(=O)N[C@@H](Cc6ccccc6)C(=O)N[C@@H](CCCNC(=N)N)C(=O)NCC(=O)N[C@@H](CC(=O)O)C(=O)N[C@@H](CC(C)C)C(=O)N[C@@H](C)C(=O)N[C@@H](Cc6ccccc6)C(=O)N6CCC[C@@H]6C(=O)N5C)nn4)CCN(CP(=O)(O)CCC(=O)NCCCn4cc(CCC(=O)NCCCC[C@H]5C(=O)N[C@@H](Cc6ccc(O)cc6)C(=O)N[C@@H](CCCNC(=N)N)C(=O)NCC(=O)N[C@@H](CC(=O)O)C(=O)N[C@@H](CC(C)C)C(=O)N[C@@H](C)C(=O)N[C@@H](Cc6ccc(O)cc6)C(=O)N6CCC[C@@H]6C(=O)N5C)nn4)CC3)nn2)N(C)C(=O)[C@H]2CCCN2C(=O)[C@H](Cc2ccccc2)NC(=O)[C@H](C)NC1=O (68Ga complex, metal not drawn) [Y2] | 1.5 ± 1.28 %ID/g | 2.26 ± 0.26 %ID/g | 1.08 ± 0.13 %ID/g | 92 ± 12.2 %ID/g | 3.81 ± 0.53 %ID/g | 3.37 ± 0.68 %ID/g | 4.8 ± 0.5 %ID/g | 0.72 ± 0.15 %ID/g | 0.65 ± 0.12 %ID/g | 2.55 ± 0.27 %ID/g | 2.51 ± 0.33 %ID/g | 7.17 ± 0.58 %ID/g | 7.95 ± 1.02 %ID/g | 8.8 ± 6.2 | 3.5 ± 0.5 | 7.4 ± 0.6 | 0.1 | 2.1 ± 0.2 | 2.4 ± 0.4 | 1.7 ± 0.2 | tissue to tissue ratio at 1.5 h ([1]; tumor/organ ratio Muscle): 11.4 ± 2.4; tissue to tissue ratio at 1.5 h ([1]; tumor/organ ratio Pancreas): 12.7 ± 2.9; tissue to tissue ratio at 1.5 h [1, 5]: 3.1 ± 0.5; tissue to tissue ratio at 1.5 h ([1]; tumor/organ ratio Spleen): 3.2 ± 0.7; tissue to tissue ratio at 1.5 h [1, 6]: 1.1 ± 0.1; log D7.4 [2]: −1.4 to −1.5; logD [2]: -1.5 ± 0.2 |
| CC(C)C[C@@H]1NC(=O)[C@H](CC(=O)O)NC(=O)CNC(=O)[C@H](CCCNC(=N)N)NC(=O)[C@H](Cc2ccccc2)NC(=O)[C@H](CCCCNC(=O)CCc2cn(CCCNC(=O)CCP(=O)(O)CN3CCN(CP(=O)(O)CCC(=O)NCCCn4cc(CCC(=O)NCCCC[C@H]5C(=O)N[C@@H](Cc6ccccc6)C(=O)N[C@@H](CCCNC(=N)N)C(=O)NCC(=O)N[C@@H](CC(=O)O)C(=O)N[C@@H](CC(C)C)C(=O)N[C@@H](C)C(=O)N[C@@H](Cc6ccccc6)C(=O)N6CCC[C@@H]6C(=O)N5C)nn4)CCN(CP(=O)(O)CCC(=O)NCCCn4cc(CCC(=O)NCCCC[C@H]5C(=O)N[C@@H](Cc6ccc(O)cc6)C(=O)N[C@@H](CCCNC(=N)N)C(=O)NCC(=O)N[C@@H](CC(=O)O)C(=O)N[C@@H](CC(C)C)C(=O)N[C@@H](C)C(=O)N[C@@H](Cc6ccccc6)C(=O)N6CCC[C@@H]6C(=O)N5C)nn4)CC3)nn2)N(C)C(=O)[C@H]2CCCN2C(=O)[C@H](Cc2ccccc2)NC(=O)[C@H](C)NC1=O (68Ga complex, metal not drawn) [Y1Y] | 1.57 ± 0.41 %ID/g | 2.54 ± 0.37 %ID/g | 1.54 ± 0.61 %ID/g | 91.2 ± 9.95 %ID/g | 4.1 ± 0.84 %ID/g | 4.39 ± 0.46 %ID/g | 6.76 ± 2.02 %ID/g | 0.75 ± 0.17 %ID/g | 0.64 ± 0.11 %ID/g | 2.72 ± 0.36 %ID/g | 3.85 ± 0.86 %ID/g | 6.78 ± 0.72 %ID/g | 8.16 ± 2.01 %ID/g | 5.3 ± 1.5 | 3.2 ± 0.7 | 5.7 ± 2 | 0.1 | 2 ± 0.5 | 1.8 ± 0.3 | 1.2 ± 0.2 | tissue to tissue ratio at 1.5 h ([1]; tumor/organ ratio Muscle): 11.2 ± 3.4; tissue to tissue ratio at 1.5 h ([1]; tumor/organ ratio Pancreas): 12.7 ± 2.9; tissue to tissue ratio at 1.5 h [1, 5]: 3 ± 0.7; tissue to tissue ratio at 1.5 h ([1]; tumor/organ ratio Spleen): 2.2 ± 0.5; tissue to tissue ratio at 1.5 h [1, 6]: 1.2 ± 0.2; log D7.4 [2]: −1.4 to −1.5; logD [2]: -1.5 ± 0.1 |
| CC(C)C[C@@H]1NC(=O)[C@H](CC(=O)O)NC(=O)CNC(=O)[C@H](CCCNC(=N)N)NC(=O)[C@H](Cc2ccccc2)NC(=O)[C@H](CCCCNC(=O)CCc2cn(CCCNC(=O)CCP(=O)(O)CN3CCN(CP(=O)(O)CCC(=O)NCCCn4cc(CCC(=O)NCCCC[C@H]5C(=O)N[C@@H](Cc6ccc(O)cc6)C(=O)N[C@@H](CCCNC(=N)N)C(=O)NCC(=O)N[C@@H](CC(=O)O)C(=O)N[C@@H](CC(C)C)C(=O)N[C@@H](C)C(=O)N[C@@H](Cc6ccccc6)C(=O)N6CCC[C@@H]6C(=O)N5C)nn4)CCN(CP(=O)(O)CCC(=O)NCCCn4cc(CCC(=O)NCCCC[C@H]5C(=O)N[C@@H](Cc6ccc(O)cc6)C(=O)N[C@@H](CCCNC(=N)N)C(=O)NCC(=O)N[C@@H](CC(=O)O)C(=O)N[C@@H](CC(C)C)C(=O)N[C@@H](C)C(=O)N[C@@H](Cc6ccccc6)C(=O)N6CCC[C@@H]6C(=O)N5C)nn4)CC3)nn2)N(C)C(=O)[C@H]2CCCN2C(=O)[C@H](Cc2ccccc2)NC(=O)[C@H](C)NC1=O (68Ga complex, metal not drawn) [Y2Y] | 1.07 ± 0.27 %ID/g | 1.91 ± 0.49 %ID/g | 0.85 ± 0.16 %ID/g | 80.8 ± 5.12 %ID/g | 3.89 ± 0.73 %ID/g | 2.59 ± 0.35 %ID/g | 7.02 ± 1.34 %ID/g | 0.63 ± 0.12 %ID/g | 0.44 ± 0.07 %ID/g | 2.23 ± 0.41 %ID/g | 4.36 ± 0.79 %ID/g | 6.55 ± 1.48 %ID/g | 7.93 ± 0.28 %ID/g | 7.8 ± 1.7 | 4.4 ± 1.1 | 9.6 ± 1.8 | 0.1 | 2.1 ± 0.4 | 3.1 ± 0.3 | 1.2 ± 0.2 | tissue to tissue ratio at 1.5 h ([1]; tumor/organ ratio Muscle): 13 ± 2.5; tissue to tissue ratio at 1.5 h ([1]; tumor/organ ratio Pancreas): 18.2 ± 2.3; tissue to tissue ratio at 1.5 h [1, 5]: 3.6 ± 0.7; tissue to tissue ratio at 1.5 h ([1]; tumor/organ ratio Spleen): 1.9 ± 0.4; tissue to tissue ratio at 1.5 h [1, 6]: 1.3 ± 0.3; log D7.4 [2]: −1.4 to −1.5; logD [2]: -1.5 ± 0.1 |
| CC(C)C[C@@H]1NC(=O)[C@H](CC(=O)O)NC(=O)CNC(=O)[C@H](CCCNC(=N)N)NC(=O)[C@H](Cc2ccccc2)NC(=O)[C@H](CCCCNC(=O)CCc2cn(CCCNC(=O)CCP(=O)(O)CN3CCN(CP(=O)(O)CCC(=O)NCCCn4cc(CCC(=O)NCCCC[C@H]5C(=O)N[C@@H](Cc6ccccc6)C(=O)N[C@@H](CCCNC(=N)N)C(=O)NCC(=O)N[C@@H](CC(=O)O)C(=O)N[C@@H](CC(C)C)C(=O)N[C@@H](C)C(=O)N[C@@H](Cc6ccc(O)cc6)C(=O)N6CCC[C@@H]6C(=O)N5C)nn4)CCN(CP(=O)(O)CCC(=O)NCCCn4cc(CCC(=O)NCCCC[C@H]5C(=O)N[C@@H](Cc6ccccc6)C(=O)N[C@@H](CCCNC(=N)N)C(=O)NCC(=O)N[C@@H](CC(=O)O)C(=O)N[C@@H](CC(C)C)C(=O)N[C@@H](C)C(=O)N[C@@H](Cc6ccc(O)cc6)C(=O)N6CCC[C@@H]6C(=O)N5C)nn4)CC3)nn2)N(C)C(=O)[C@H]2CCCN2C(=O)[C@H](Cc2ccccc2)NC(=O)[C@H](C)NC1=O (68Ga complex, metal not drawn) [Y2F] | 0.84 ± 0.07 %ID/g | 1.62 ± 0.2 %ID/g | 0.76 ± 0.06 %ID/g | 107 ± 7.49 %ID/g | 3.96 ± 1.16 %ID/g | 2.09 ± 0.17 %ID/g | 5.62 ± 1.34 %ID/g | 0.66 ± 0.12 %ID/g | 0.38 ± 0.04 %ID/g | 2.51 ± 0.5 %ID/g | 3.84 ± 1.14 %ID/g | 6.99 ± 3.4 %ID/g | 7.99 ± 1.62 %ID/g | 9.6 ± 2.2 | 4.9 ± 1 | 10.6 ± 2 | 0.1 | 2.1 ± 0.5 | 3.8 ± 0.9 | 1.4 ± 0.2 | tissue to tissue ratio at 1.5 h ([1]; tumor/organ ratio Muscle): 12.2 ± 1.5; tissue to tissue ratio at 1.5 h ([1]; tumor/organ ratio Pancreas): 20.8 ± 3.9; tissue to tissue ratio at 1.5 h [1, 5]: 3.2 ± 0.4; tissue to tissue ratio at 1.5 h ([1]; tumor/organ ratio Spleen): 2.2 ± 0.5; tissue to tissue ratio at 1.5 h [1, 6]: 1.3 ± 0.3; log D7.4 [2]: −1.4 to −1.5; logD [2]: -1.5 ± 0.1 |
